Measurements as given in PMC8481097.

Legend:
Assay in all cases: fluorescence polarisation
[1] = biological target: TAMRA-labeled SARS-CoV-2 nsp1 R124A/K125A (SARS-CoV-2) (UniProt P0DTD1)
[2] = biological target: TAMRA-labeled SARS-CoV-2 nsp1 R99A (SARS-CoV-2) (UniProt P0DTD1)
[3] = biological target: TAMRA-labeled SARS-CoV-2 nsp1 C-K (wild type) (SARS-CoV-2) (UniProt P0DTD1)

“purified ribosomes (crude 80S from HeLa cell lysate) (complex)” showed a fold increase in KD against WT nsp1 [1] of 2.2 fold, a fold increase in KD against WT nsp1 [2] of 1.8 fold and a Kd [3] of 29.4 nM.
